Reference: patent publication US20230374088A1 (GENERAL HOSPITAL, published 2023)
Blank lines part the entries; values can stand above or below the binder they belong to.

What was measured:
[1] = biological target: T1, GMPCPP-stabilized microtubules (porcine, UniProt P02554 1-445); test: TIRF microscopy, GFP intensity on microtubules, no Gli2-ZF
T1 construct: Polymer of tubulin heterodimers; in TIRF partly labeled with X-rhodamine/HiLyte 647 and biotin; also called MT; GMPCPP-microtubule lattice
T1 sequence (P02554 whole entry): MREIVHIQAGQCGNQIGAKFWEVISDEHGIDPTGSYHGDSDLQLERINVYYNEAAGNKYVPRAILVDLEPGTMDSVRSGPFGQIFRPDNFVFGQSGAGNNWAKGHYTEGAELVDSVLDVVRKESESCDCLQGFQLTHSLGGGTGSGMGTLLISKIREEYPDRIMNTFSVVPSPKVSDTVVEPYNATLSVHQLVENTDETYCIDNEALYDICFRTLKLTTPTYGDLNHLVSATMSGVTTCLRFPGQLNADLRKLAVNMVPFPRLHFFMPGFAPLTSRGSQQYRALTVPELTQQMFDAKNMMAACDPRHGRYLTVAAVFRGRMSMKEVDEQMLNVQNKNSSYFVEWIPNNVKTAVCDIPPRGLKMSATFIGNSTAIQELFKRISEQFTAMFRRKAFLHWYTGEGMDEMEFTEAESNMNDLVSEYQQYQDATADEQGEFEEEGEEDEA

Gli2-ZF-SNAP [2] = biological target: T2, Gli2-ZF-SNAP (human, UniProt P10070 418-604, Alexa 647 dye on the SNAP tag in the TIRF assays); test: TIRF microscopy; 100 nM Gli2-ZF-SNAP-Alexa647 with 100 nM kinesin on microtubules
T2 construct: Labeled with Alexa 647 for TIRF microscopy; used unlabeled (as far as told) for cryo-EM; also called Gli2-ZF-SNAP-Alexa 647; Gli2-ZF-Alexa 647; not shown: C-terminal SNAP tag
T2 sequence (looked up): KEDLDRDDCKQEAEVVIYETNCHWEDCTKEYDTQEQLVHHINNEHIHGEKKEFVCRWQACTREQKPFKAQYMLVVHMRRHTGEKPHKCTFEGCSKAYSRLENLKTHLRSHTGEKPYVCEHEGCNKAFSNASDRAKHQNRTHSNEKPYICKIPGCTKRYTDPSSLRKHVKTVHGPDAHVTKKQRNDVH
Source text: (§1) Briefly, fluorescently labeled (Rhodamine/HiLyte-647) and biotinylated microtubule seeds, polymerized with the non-hydrolyzable GTP analog GMPCPP, were immobilized on a glass coverslip through neutravidin-biotin linkages (FIG. 4A). GMPCPP was chosen as it mimics the GTP-form of tubulin present at microtubule ends (Jiang et al., Developmental cell, 49, 711-730. e8 2019). […] A Gli2 control was used to measure non-specific binding of Gli2-ZF to microtubules. Single molecule photobleaching of purified Kif7-DM confirmed that it is a dimer (FIGS. 11A-D).
To address which of the two Gli-interaction sites of Kif7 plays a role in modulating Kif7 microtubule binding, we generated two chimeric proteins where we swapped either the motor and neck-linker (M) or the coiled-coil (CC) domains of Kif7 and Kif27 (Kif7M-Kif27CC and Kif27M-Kif7CC) (FIG. 5E). […] The binding affinity for each of the two Gli interaction sites on Kif7-DM could be determined using BLI (FIG. 12H). We compared the two chimeras to Kif7-DM in TIRF microscopy-based microtubule binding assay. […] Next, we compared how the microtubule binding of the chimeras were regulated by Gli with respect to Kif7-DM.

Gli2-ZF-SNAP [3] = biological target: T2, Gli2-ZF-SNAP; test: TIRF microscopy; 100 nM Kif7-DM-GFP and 100 nM Alexa-647 labeled Gli2-ZF-SNAP on GMPCPP microtubules
Procedure: Rhodamine/HiLyte 647 labeled GMPCPP-stabilized microtubules (grey) were immobilized on a PEG-treated glass coverslip (yellow) via neutravidin-biotin linkages (blue & brown respectively). Kif7-DM-GFP (green), Gli2-ZF-SNAP-Alexa 647 (pink) and 1 mM ATP were subsequently added to examine binding of both proteins on microtubules. All proteins for TIRF microscopy assay were purified to >95% purity (FIGS. 11A & 11B). See also FIGS. 11C-11D.
as §1, with “To examine whether the Kif7-Gli interaction described above is sufficient for recruiting Gli to microtubules, we reconstituted Gli and Kif7 on microtubules and examined their activity using an in vitro TIRF microscopy assay. Briefly,” for “Briefly,”

GST-Kif7-CC (460-600aa) = biological target: T3, GST-Kif7-CC (460-600aa) (human, UniProt Q2M1P5 460-600); test: BLI association step, GST-Kif7-CC on the sensor, soluble truncation at 125 nM [panel C]
T3 construct: held on the BLI sensor through the GST tag; also called Kif7 coiled-coil domain; coiled-coil dimerization domain fragment of Kif7; not shown: N-terminal GST tag (HRV protease cleavable, modified pGEX vector)
T3 sequence: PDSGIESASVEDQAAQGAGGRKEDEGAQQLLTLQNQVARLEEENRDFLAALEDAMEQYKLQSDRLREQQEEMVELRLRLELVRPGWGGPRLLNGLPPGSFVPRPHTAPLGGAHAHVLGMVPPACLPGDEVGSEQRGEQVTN
Procedure: Equilibrium dissociation constants Kd (shown in parenthesis) were determined by fitting complete binding curves to Hill equation (See FIG. 10C). See also FIGS. 10A, 10B & 10C. Data is representative trace of a minimum of three repeats.
BLI experiments were performed in an Octet Red 96 instrument (ForteBio). To quantify Kif7-Gli2 binding, Experiments were performed in an assay buffer containing 40 mM TRIS pH7.3, 40 mM KCl, 40 μM ATP 1 mM MgCl₂, 0.12% tween and 0.5 mM TCEP. In the simplest assay, dimeric GST-Kif7-CC at a concentration of 120 nM is immobilized on an anti-GST biosensor chip. Unbound Kif7 is washed away with buffer, and the chips are then dipped into buffer with a range of Gli2-ZF concentrations from 0-1 μM to allow for association of the two proteins. After 300 seconds, they are then moved back into a well with just buffer to allow dissociation for 400 seconds. The equilibrium response of each sensor from three independent repeats at each Gli2 concentration were normalized and plotted against Gli2 concentration and fitted with a Hill function to obtain a Kₜ. […] The assays were also performed with HIS-tagged Kif7-DM and the Kif7-Kif27 chimeric proteins, requiring the use of an anti-penta-HIS biosensor chip, and referencing sensors to account for non-specific binding of Gli2 to the HIS sensor. A flipped assay, using HIS-tagged Gli2 on the sensor and a range of Kif7 concentrations in buffer, was also conducted.

GST-Kif7-CC-GFP = biological target: T4, GST-Kif7-CC-GFP (human, UniProt Q2M1P5 460-600); test: SDS-PAGE and in-gel GFP fluorescence intensity of the size exclusion fraction holding the Kif7-CC-GFP:Gli2-ZF-GFP complex; confirmed by quantitative anti-GFP western blot
T4 construct: also called GST-tagged Kif7-CC-GFP; not shown: N-terminal GST tag; GFP tag, C-terminal by the name
T4 sequence: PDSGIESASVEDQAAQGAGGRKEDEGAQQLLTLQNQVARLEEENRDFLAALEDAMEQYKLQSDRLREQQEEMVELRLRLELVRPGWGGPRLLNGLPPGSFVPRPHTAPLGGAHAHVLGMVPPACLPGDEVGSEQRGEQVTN
Procedure: To determine the stoichiometry of the complex (whether one Kif7-CC dimer bind one or two molecules of monomeric Gli2-ZF), we used fluorescence intensity analyses. […] The complex was analyzed by two methods. […] Second, quantitative western blot with fluorescently labeled anti-GFP antibody and densitometric analysis independently confirmed the stoichiometry of the complex (FIG. 8F).
The Kif7-CC and Kif7-DM proteins were not amenable to dynamic light scattering analysis and so in order to determine the stoichiometry of the Kif7-Gli2 complexes, we purified GFP-tagged constructs of Kif7-DM, Kif7-CC, and Gli2-ZF. […] After incubation, 200 μL of this mix was injected into a Superdex 200 10/300 GL column. Fractions that contained complexed protein were determined by elution volume shift in the gel filtration chromatogram. Complex containing fractions were boiled and run in SDS-PAGE and quantified in two ways: (1) Scan of an unstained SDS-PAGE gel at 488 nm, and (2) Scan of a Western blot using a directly labeled […] anti-GFP antibody (Santa Cruz). Both methods were quantified using an Amersham™ Typhoon Scanner and ImageJ for intensity analysis.

fold binding to microtubules compared to Kif7-DM (GFP intensity) [1]: ~10 fold
fold decrease in Gli recruitment on microtubules compared to Kif7-DM (Alexa-647 intensity per GFP intensity) (Gli2-ZF-SNAP [2]): 3 fold
B1: Kif7M-Kif27CC chimera (other, human)
chain: MGLEAQRLPGAEEAPVRVALRVRPLLPKELLHGHQSCLQVEPGLGRVTLGRDRHFGFHVVLAEDAGQEAVYQACVQPLLEAFFEGFNATVFAYGQTGSGKTYTMGEASVASLLEDEQGIVPRAMAEAFKLIDENDLLDCLVHVSYLEVYKEEFRDLLEVGTASRDIQLREDERGNVVLCGVKEVDVEGLDEVLSLLEMGNAARHTGATHLNHLSSRSHTVFTVTLEQRGRAPSRLPRPAPGQLLVSKFHFVDLAGSERVLKTGSTGERLKESIQINSSLLALGNVISALGDPQRRGSHIPYRDSKITRILKDSLGGNAKTVMIACVSPSSSDFDETLNTLNYASRAQNIRNRATVNWRPEAERPPEETASGARGPPRHRSETRIIHRGRRAPGPATASAAAAMRLGAECARYRACTDAAYSLLRELQAEPGLPGAAARKVRDWLCAVEGERSALSSASGPDSVLQLKRELKKCQCVLAADEVVFNQKELEVKELKNQVQMMVQENKGHAVSLKEAQKVNRLQNEKIIEQQLLVDQLSEELTKLNLSVTSSAKENCGDG
notes: range 475-570; not shown: HIS tag (used for BLI); GFP tag

fold Gli2-ZF Alexa-647 intensity on microtubules over Gli2 alone (Gli2-ZF-SNAP [2]): ~9 fold
fold increase over background of Gli2 intensity on microtubules (Gli2-ZF-SNAP [3]): 3 fold
B2: Kif7-DM-GFP (1-543aa) (other)
chain: MGLEAQRLPGAEEAPVRVALRVRPLLPKELLHGHQSCLQVEPGLGRVTLGRDRHFGFHVVLAEDAGQEAVYQACVQPLLEAFFEGFNATVFAYGQTGSGKTYTMGEASVASLLEDEQGIVPRAMAEAFKLIDENDLLDCLVHVSYLEVYKEEFRDLLEVGTASRDIQLREDERGNVVLCGVKEVDVEGLDEVLSLLEMGNAARHTGATHLNHLSSRSHTVFTVTLEQRGRAPSRLPRPAPGQLLVSKFHFVDLAGSERVLKTGSTGERLKESIQINSSLLALGNVISALGDPQRRGSHIPYRDSKITRILKDSLGGNAKTVMIACVSPSSSDFDETLNTLNYASRAQNIRNRATVNWRPEAERPPEETASGARGPPRHRSETRIIHRGRRAPGPATASAAAAMRLGAECARYRACTDAAYSLLRELQAEPGLPGAAARKVRDWLCAVEGERSALSSASGPDSGIESASVEDQAAQGAGGRKEDEGAQQLLTLQNQVARLEEENRDFLAALEDAMEQYKLQSDRLREQQEEMVELRLRLELVRP
notes: Dimer; Used in TIRF, size exclusion and BLI (HIS-tagged, anti-penta-HIS sensor); also called GFP-tagged recombinant dimeric Kif7 protein; GFP-tagged Kif7-DM; not shown: TEV-cleavable N-terminal 6xHis tag and SUMOstar tag; His tag on in the BLI assay, state in other a; GFP tag, C-terminal by the name

binding result (GST-Kif7-CC (460-600aa)): no binding (tested: 125 nM)
B3: ZF4-5 (530-604) (other, human, UniProt P10070 530-604, looked up)
Gli2 zinc-finger truncation: EKPYVCEHEGCNKAFSNASDRAKHQNRTHSNEKPYICKIPGCTKRYTDPSSLRKHVKTVHGPDAHVTKKQRNDVH
notes: residues 530-604; One of the three truncations of the group m9; also called Gli2-ZF truncation ZF4-5

stoichiometry of interaction (GST-Kif7-CC-GFP): 0.5 Gli2-ZF molecules per Kif7-CC chain (1:2, one Gli2-ZF monomer per Kif7-CC dimer)
B4: Gli2-ZF-GFP (other, human, UniProt P10070 418-604, looked up)
chain: KEDLDRDDCKQEAEVVIYETNCHWEDCTKEYDTQEQLVHHINNEHIHGEKKEFVCRWQACTREQKPFKAQYMLVVHMRRHTGEKPHKCTFEGCSKAYSRLENLKTHLRSHTGEKPYVCEHEGCNKAFSNASDRAKHQNRTHSNEKPYICKIPGCTKRYTDPSSLRKHVKTVHGPDAHVTKKQRNDVH
notes: HRV-cleavable N-terminal 6xHis tag in the vector; not shown: C-terminal GFP tag
